From patent US8389676B2, “Biotinylation tag peptides” (Pacific Biosciences of California, Inc., priority 2010, dated 2013)
Where a chain is given by its changes, count along the chain named. No end group written: not given here.

Target: streptavidin (Streptomyces avidinii, UniProt P22629)
Assay: Degree of biotinylation assessed by HPLC as fraction bound to streptavidin
Format: binding
Conditions: fusion protein biotinylation peptide-His(10)-phi29 pol, biotinylated in vivo in E. coli co-expressing biotin ligase, Ni-NTA purified, 2-fold molar excess of streptavidin
Description: Each of the DNA sequences encoding the affinity peptides was added individually to the 5′ terminus of a His(10)-tagged phi29 DNA polymerase gene such that the polypeptide expressed from each construct was a fusion protein consisting of: N-terminus-biotinylation peptide-His(10)-phi29 pol-C-terminus. Each gene was expressed in E. coli cells co-expressing biotin ligase in culture medium containing biotin. These conditions are known to effect the in-vivo biotinylation of biotinylation peptides. Proteins were purified using Ni-NTA columns and then mixed with a 2-fold molar excess of streptavidin under conditions known to effect binding of streptavidin to biotinylated fusion proteins.
The degree of biotinylation of each protein was assessed by HPLC. […] None of the biotinylation peptides affected the polymerase activity when tested in a branching fraction assay performed, for example, as described in U.S. patent application No. 2010/0112645.

streptavidin, sequence (P22629 25-183, species assumed): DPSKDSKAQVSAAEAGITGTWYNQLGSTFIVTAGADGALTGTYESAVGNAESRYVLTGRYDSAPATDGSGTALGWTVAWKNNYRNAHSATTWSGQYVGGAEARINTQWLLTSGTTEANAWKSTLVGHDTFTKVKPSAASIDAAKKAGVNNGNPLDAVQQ

B1: Leu Asn Asp Leu Phe His Ala Gln Lys Ile Glu Trp His (protein)
chain: LNDLFHAQKIEWHHHHHHHHHHHMKHMPRKMYSCDFETTTKVEDCRVWAYGYMNIEDHSEYKIGNSLDEFMAWVLKVQADLYFHNLKFDGAFIINWLERNGFKWSADGLPNTYNTIISRMGQWYMIDICLGYKGKRKIHTVIYDSLKKLPFPVKKIAKDFKLTVLKGDIDYHKERPVGYKITPEEYAYIKNDIQIIAEALLIQFKQGLDRMTAGSDSLKGFKDIITTKKFKKVFPTLSLGLDKEVRYAYRGGFTWLNDRFKEKEIGEGMVFDVNSLYPAQMYSRLLPYGEPIVFEGKYVWDEDYPLHIQHIRCEFELKEGYIPTIQIKRSRFYKGNEYLKSSGGEIADLWLSNVDLELMKEHYDLYNVEYISGLKFKATTGLFKDFIDKWTYIKTTSEGAIKQLAKLMLNSLYGKFASNPDVTGKVPYLKENGALGFRLGEEETKDPVYTPMGVFITAWARYTTITAAQACYDRIIYCDTDSIHLTGTEIPDVIKDIVDPKKLGYWAHESTFKRAKYLRQKTYIQDIYMKEVDGKLVEGSPDDYTDIKFSVKCAGMTDKIKKEVTFENFKVGFSRKMKPKPVQVPGGVVLVDDTFTIK
notes: biotinylation peptide tested as N-terminal fusion: biotinylation peptide-His(10)-phi29 pol
  degree of biotinylation: bound to streptavidin: approximately 50%

B2: Leu Asn Asp Ile Val Glu Ala Gln Lys Ile Glu Trp His (protein)
chain: B1 chain with L4I, F5V, H6E
notes: as for B1
  degree of biotinylation: bound to streptavidin: approximately 50%
